One substance from patent US20240287175A1 can be followed below.

In this assay the target is mouse CD22 (mouse) (UniProt P35329). Put plainly: cell-based or functional assay.
Sequence of UniProt P35329 (P35329 22-868): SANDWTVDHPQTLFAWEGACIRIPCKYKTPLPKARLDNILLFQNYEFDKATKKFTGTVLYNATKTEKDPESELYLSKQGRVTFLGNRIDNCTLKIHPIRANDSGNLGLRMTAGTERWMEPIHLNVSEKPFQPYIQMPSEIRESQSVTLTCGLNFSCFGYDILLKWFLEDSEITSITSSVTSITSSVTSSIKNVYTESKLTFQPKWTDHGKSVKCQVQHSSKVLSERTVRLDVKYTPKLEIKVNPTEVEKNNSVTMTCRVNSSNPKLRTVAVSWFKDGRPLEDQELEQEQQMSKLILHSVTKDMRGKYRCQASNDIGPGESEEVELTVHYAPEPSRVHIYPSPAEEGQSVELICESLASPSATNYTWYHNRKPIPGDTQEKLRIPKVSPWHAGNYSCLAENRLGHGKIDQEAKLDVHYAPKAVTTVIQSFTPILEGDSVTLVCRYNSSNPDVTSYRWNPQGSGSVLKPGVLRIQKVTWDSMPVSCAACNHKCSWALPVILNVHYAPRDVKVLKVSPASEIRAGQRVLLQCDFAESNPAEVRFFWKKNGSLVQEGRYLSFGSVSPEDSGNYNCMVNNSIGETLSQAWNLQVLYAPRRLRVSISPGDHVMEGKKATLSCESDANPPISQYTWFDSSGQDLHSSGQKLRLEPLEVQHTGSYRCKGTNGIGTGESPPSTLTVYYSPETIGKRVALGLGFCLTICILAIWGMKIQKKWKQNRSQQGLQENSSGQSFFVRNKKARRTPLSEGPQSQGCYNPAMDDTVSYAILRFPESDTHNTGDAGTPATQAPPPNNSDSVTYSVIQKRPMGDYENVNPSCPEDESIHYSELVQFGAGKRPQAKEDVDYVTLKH

Substance “mouse monoclonal anti-CD22 antibody (Cy34, BioXCell)” gave a receptor occupancy necessary to achieve IC50 in the pSHP1/SHP1 assay of less than 50%.
